Data published in article PMC5093063.

Assays:
Experiment in all cases: SEC
[1] = molecular target: Chimeric IN F-H-H (NTD of FIV, CCD and CTD of HIV-1) (FIV (Petaluma) | HIV-1) (UniProt P12497)
[2] = molecular target: Chimeric IN H-F-F (NTD of HIV-1, CCD and CTD of FIV) (HIV-1 | FIV (Petaluma)) (UniProt P12497)
[3] = molecular target: Chimeric IN F-F-H (NTD and CCD of FIV, CTD of HIV-1) (FIV (Petaluma) | HIV-1) (UniProt P12497)
[4] = molecular target: Chimeric IN F-H-F (NTD and CTD of FIV, CCD of HIV-1) (FIV (Petaluma) | HIV-1) (UniProt P12497)

## Chimeric IN F-H-H (NTD of FIV, CCD and CTD of HIV-1) (from UniProt P12497) (enzyme)
[1]
  stoichiometry N: 2

## Chimeric IN H-F-F (NTD of HIV-1, CCD and CTD of FIV) (from UniProt P12497 2-52) (enzyme)
[2]
  stoichiometry N: 2

## Chimeric IN F-F-H (NTD and CCD of FIV, CTD of HIV-1) (from UniProt P12497 211-289) (enzyme)
[3]
  stoichiometry N: 2

## Chimeric IN F-H-F (NTD and CTD of FIV, CCD of HIV-1) (from UniProt P12497 53-210) (enzyme)
[4]
  stoichiometry N: 2
